Values joined by “and” are separate entries in the source; they are usually repeats but may differ in a detail not shown here. Equal entries are not always repeated.
Target: the molecule itself
Experiment: SEC; peptide at 43, 85 or 150 uM incubated in aqueous buffer at pH 7.0 or 8.0 at 37°C with 180 rpm agitation, aliquots filtered (0.22 um) and run on Superose 12 10/300 or Superdex 75 10/300 at room temperature, 0.75 mL/min, elution buffer as incubation buffer; oligomer size from calibration with globular protein standards

B1: Glucagon-like peptide 1, GLP-1(7–37) (peptide)
chain: HAEGTFTSDVSSYLEGQAAKEFIAWLVKGRG
notes: Glucagon-like peptide 1 (7-37), 31-residue peptide hormone cut from proglucagon; free C-terminus (-OH); 3355 Da; Forms non-covalent low-molecular-weight oligomers of varying size; written as the single chain
- stoichiometry N: 3 and 5

Source: publication PMC10323027, “Glucagon-like peptide 1 aggregates into low-molecular-weight oligomers off-pathway to fibrillation” (Biophysical Journal, 2023)
